Test [1] has as its target dynein heavy chain (DYNC1H1) (human) (UniProt Q14204). Put plainly: SEC-MALS; purified recombinant dynein complex; single peak of approximately 1.40 MDa against 1.42 MDa expected for a dimeric complex of all six chains. (Size exclusion chromatography separates by hydrodynamic size, large species first.)
For test [2], the target named is recombinant human cytoplasmic dynein 1 complex (human) (UniProt Q14204).
For test [3] the target is unchanged. As to the kind of experiment: single-molecule two-colour co-localisation (TIRF microscopy); roughly equimolar TMR–dynein and Alexa647–dynein mixed, puncta on microtubules scored for both dyes in kymographs, 2.5 mM ATP; done without and with dynactin and BICD2N.

3 substances from article PMC4158905 can be followed below.

As usually defined, the stoichiometry N is a count of units in the complex or per binding partner.

Consider “dynein heavy chain (DYNC1H1), Q14204 1-4646”, for which the stoichiometry N in test [1] stood at 2.

As to “native dynactin complex from pig brains (from UniProt A0A287B8J2 1-1281; A0A5G2QD80 1-405)”, the proportion of TMR–dynein complexes with unidirectional minus end-directed movement on microtubules, with dynactin and BICD2N at 20 BICD2N dimers: 1 dynein complex: 2 dynactin complexes in test [2] was 23%. As for “recombinant human cytoplasmic dynein 1 complex (from UniProt Q14204 1-4646; O43237-1 1-492; P63172 1-113; Q9NP97-1 1-96; P63167 1-89)”, in test [3], the percent of dynein puncta that contained both dyes turned out to be 6%.
